The values that follow come from PMC8933513 (2022).

Substitutions are numbered along the chain they refer to.

Holding throughout (experiment): SPR
(SPR reads the build-up and loss of mass on a sensor chip optically.)

The target in assay [1] is T1, pAPN ectodomain K374A mutant (pig, UniProt P15145 58-961, K374A).
T1 sequence: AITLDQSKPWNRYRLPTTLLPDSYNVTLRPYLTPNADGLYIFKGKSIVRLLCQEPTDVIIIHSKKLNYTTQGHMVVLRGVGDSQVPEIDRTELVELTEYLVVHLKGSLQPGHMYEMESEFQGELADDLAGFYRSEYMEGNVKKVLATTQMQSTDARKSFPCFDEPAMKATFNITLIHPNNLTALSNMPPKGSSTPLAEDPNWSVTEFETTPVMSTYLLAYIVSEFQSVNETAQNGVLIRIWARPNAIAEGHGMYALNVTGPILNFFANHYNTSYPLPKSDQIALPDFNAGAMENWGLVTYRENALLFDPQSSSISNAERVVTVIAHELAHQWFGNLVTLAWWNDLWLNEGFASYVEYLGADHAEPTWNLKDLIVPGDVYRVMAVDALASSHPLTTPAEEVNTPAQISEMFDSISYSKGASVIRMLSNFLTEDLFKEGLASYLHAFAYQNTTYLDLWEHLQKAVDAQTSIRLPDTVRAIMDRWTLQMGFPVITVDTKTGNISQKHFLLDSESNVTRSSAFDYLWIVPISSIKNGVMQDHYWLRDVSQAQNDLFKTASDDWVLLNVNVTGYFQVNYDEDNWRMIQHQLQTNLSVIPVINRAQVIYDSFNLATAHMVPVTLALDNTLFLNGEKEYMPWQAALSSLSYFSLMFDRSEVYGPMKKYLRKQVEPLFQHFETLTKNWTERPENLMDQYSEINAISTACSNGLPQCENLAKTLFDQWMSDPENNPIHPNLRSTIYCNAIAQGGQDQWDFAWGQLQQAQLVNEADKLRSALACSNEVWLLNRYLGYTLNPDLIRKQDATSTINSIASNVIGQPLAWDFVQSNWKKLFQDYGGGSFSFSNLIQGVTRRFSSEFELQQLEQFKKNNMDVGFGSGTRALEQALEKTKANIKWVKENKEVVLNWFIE

The target of assay [2] is T2, porcine aminopeptidase N (pAPN) ectodomain, residues 58-961, wild type (pig, UniProt P15145 58-961).
T2 chain: T1 sequence with A317K

In assay [3] the target is T3, pAPN ectodomain W424A mutant (pig, UniProt P15145 58-961, W424A).
T3 sequence: T1 sequence with A317K, W367A

B1: PDCoV spike (S) protein receptor binding domain (RBD), residues 300-419, wild type (domain or fragment)
chain: PKLPELEVVQLNISAHMDFGEARLDSVTINGNTSYCVTKPYFRLETNFMCTGCTMNLRTDTCSFDLSAVNNGMSFSQFCLSTESGACEMKIIVTYVWNYLLRQRLYVTAVEGQTHTGTTS
B1: the results for the Kd in assay [1], in assay [2] and in assay [3] were greater than 1 mM, 44.2 µM and 116 µM, respectively.

As usually defined, the Kd is the constant that tells how readily two partners part at equilibrium.
